Results taken from PMC4499151, “Identifying high-affinity aptamer ligands with defined cross-reactivity using high-throughput guided systematic evolution of ligands by exponential enrichment”.

T1: human IL-10RA-Fc fusion (human, UniProt Q13651 22-235)
T1 sequence: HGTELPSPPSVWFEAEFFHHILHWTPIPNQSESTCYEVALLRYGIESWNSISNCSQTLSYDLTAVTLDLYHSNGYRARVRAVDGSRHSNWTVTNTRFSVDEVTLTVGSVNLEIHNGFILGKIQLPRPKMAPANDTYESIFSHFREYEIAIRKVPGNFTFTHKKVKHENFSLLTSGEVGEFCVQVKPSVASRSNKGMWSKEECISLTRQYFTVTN


Assays:
[1] = system: human IgG (human); assay: filter binding; settings: Double filter binding, 37 C, binding buffer not detailed, selection buffer 20 mM HEPES, 2 mM CaCl2, 0.1 mg/ml BSA, 100-150 mM NaCl, pH 7.5
[2] = target: T1, human IL-10RA-Fc fusion; assay: filter binding; Double filter binding, 37 C, binding buffer not detailed; selection buffer 20 mM HEPES, 2 mM CaCl2, 0.1 mg/ml BSA, 100-150 mM NaCl, pH 7.5; settings: protein: commercial; tags: Fc fusion; chain copies: 2; label: 5' 32P

Molecule	Kd [1] [nM]	also measured
GGGAGAGAGGAAGAGGGAUGGGAAAGACCGUUUUUUAAAACGCUCAAUAUACACGACAUAAACGACGACUCGCUGAGAUCGAGA [446 (#3)]	> 500	
GGGAGAGAGGAAGAGGGAUGGGAAUCGCUCAGCCGGUCCGGAACUGGCAAAGUCAGGUGCUCCGACGACUCGCUGAGAUCGAGA [405 (cluster E)]		Kd ([1]; column inferred from text): 120 nM
GGGAGAGAGGAAGAGGGAUGGGAGCCAUGACGAUGUCGUUACGUAGAUGCAGAGACUCCUAACGACGACUCGCUGAGAUCGAGA [411-J]	> 500	
GGGAGAGAGGAAGAGGGAUGGGCGUCUCGUCAAUGCCCUACGUUUGUCUGUGCGACGACUCGCUGAGAUCGAGA [RJB#13]	> 1000	
GGGAGAGAGGAAGAGGGAUGGGUGCUCAAUUAAGAACCAUCGCUCUCCGGUGCGACGACUCGCUGAGAUCGAGA [RJB#25]	> 1000	
GGGAGAGAGGAAGAGGGAUGGGUGCUCACAAACGUGAACCAUCGUCUUGUGCCGACGACUCGCUGAGAUCGAGA [RJB#23]	> 1000	
GGGAGAGAGGAAGAGGGAUGGGUGCUCACAUACGUGAACCAUCGUCAAUGGCCGACGACUCGCUGAGAUCGAGA [RJB#10]	> 1000	
GGGAGAGAGGAAGAGGGAUGGGUGCUCAUCUUGAACGCAUUGUUUCUCCGUGCGACGACUCGCUGAGAUCGAGA [RJB#31]	> 500	
GGGAGAGAGGAAGAGGGAUGGGUGCUCCUACUGUGGAACCAUCGUUCUUGUGCGACGACUCGCUGAGAUCGAGA [RJB#17]	> 1000	
GGGAGAGAGGAAGAGGGAUGGGUGCUCGUUUCGAACCAUCGUAACUCCUGUGCGACGACUCGCUGAGAUCGAGA [RJB#161]	> 1000	
GGGAGAGAGGAAGAGGGAUGGGUGCUUCAUAGAAACGCGCGAUCUUCCUGUGCGACGACUCGCUGAGAUCGAGA [RJB#44]	> 1000	
411-J-A1G (ssRNA) RNA: GGGAGAGAGGAAGAGGGAUGGGGGCCAUGACGAUGUCGUUACGUAGAUGCAGAGACUCCUAACGACGACUCGCUGAGAUCGAGA		Kd [2]: 9 nM
411-J-G30T (ssRNA) RNA: GGGAGAGAGGAAGAGGGAUGGGAGCCAUGACGAUGUCGUUACGUAGAUGCAUAGACUCCUAACGACGACUCGCUGAGAUCGAGA		Kd [2]: 18 nM
411-J-G7T (ssRNA) RNA: GGGAGAGAGGAAGAGGGAUGGGAGCCAUUACGAUGUCGUUACGUAGAUGCAGAGACUCCUAACGACGACUCGCUGAGAUCGAGA		Kd [2]: 18 nM
411-J-C28T (ssRNA) RNA: GGGAGAGAGGAAGAGGGAUGGGAGCCAUGACGAUGUCGUUACGUAGAUGUAGAGACUCCUAACGACGACUCGCUGAGAUCGAGA		Kd [2]: 18 nM
